Test results: patent US20250179143A1 (CHILDREN S HOSPITAL OF PHILADELPHIA, published 2025)
Residue numbers refer to the chain shown, from its start. In names and notes the source's numbering stands.

Key:
[1] = target: HLA-A*02:01/hb2m/KILGFVFJV (peptide-loaded) (human); experiment: SPR, peptide-loaded HLA-A*02:01
[2] = target: HLA-A*02:01/hb2m/KILGFVF(bF)V (human); experiment: cell-based or functional assay
[3] = target: HLA-A*02:06/hb2m/KILGFVF(bF)V (human); experiment: cell-based or functional assay
[4] = target: HLA-A*01:01/hb2m/STAPGJLEY (peptide-loaded) (human); experiment: cell-based or functional assay

B1: hTAPBPR^RQ (K211R, R270Q) (other)
chain: KPHPAEGQWRAVDVVLDCFLAKDGAHRGALASSEDRARASLVLKQVPVLDDGSLEDFTDFQGGTLAQDDPPIIFEASVDLVQIPQAEALLHADCSGKEVTCEISRYFLQMTETTVKTAAWFMANMQVSGGGPSISLVMKTPRVTKNEALWHPTLNLPLSPQGTVRTAVEFQVMTQTQSLSFLLGSSASLDCGFSMAPGLDLISVEWRLQHRGRGQLVYSWTAGQGQAVRKGATLEPAQLGMARDASLTLPGLTIQDEGTYICQITTSLYQAQQIIQLNIQASPKVRLSLANEALLPTLICDIAGYYPLDVVVTWTREELGGSPAQVSGASFSSLRQSVAGTYSISSSLTAEPGSAGATYTCQVTHISLEEPLGASTQVVPPERR
notes: domain: luminal domain; As m1
B1 was tested, and the “fold lower KD than hTAPBPR” value [1] was about 7 fold, the “k2overall, fold against hTAPBPR” value [2] was about 60 fold and the “k2overall, fold against hTAPBPR” value [3] was about 9 fold. For the same binder, the “kapp of fluorescent peptide binding at 5 uM chaperone (FP)” value [4] was 0.00014 s⁻¹.

B2: hTAPBPR^KRQ (R105K, K211R, R270Q) (other)
chain: B1 chain with R105K
notes: domain: luminal domain; As m1
For B2, the “fold lower KD than hTAPBPR” value [1] was about 7 fold, the “k2overall, fold against hTAPBPR” value [2] was about 60 fold and the “k2overall, fold against hTAPBPR” value [3] was about 9 fold. For the same binder, the “kapp of fluorescent peptide binding at 5 uM chaperone (FP)” value [4] was 0.00013 s⁻¹.
